To fix the notation:
B1: PKD2L1 (parent)
chain: TLARCAKDILGFAVMFFIVFFAYA
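Also: lentivirally expressed fusions sorted by FACS into six bins by GFP to DsRed ratio, PSI derived from sequencing read proportions per bin multiplied by bin number.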

The data set covers variants of B1. Briefly: protein stability index of a GFP-peptide fusion (GPS, HEK-293T) (PSI 1-6); higher = more stable. To be noted: c terminus: a fixed tail appended.
As for TLARCAKDILGFAVMFFIVFKAYA [F21K], the protein stability index came out at 2.1.

Take TLARCAKDILGFAVMFFIVFQAYA [F21Q]: the protein stability index worked out at 1.38.

As to TLARCAKDILGFAVMFFIVFDAYA [F21D], the protein stability index was 3.21.

For TLARCAKDILGFAVMFFIVFHAYA [F21H], the protein stability index was 2.98.

As to TLARCAKDILGFAVMFFIVFIAYA [F21I], the protein stability index is 3.32.

On to TLARCAKDILGFAVMFQIVFFAYA [F17Q], for which the protein stability index was determined as 1.98.

In the case of TLARCAKDILGFAVMFGIVFFAYA [F17G], the protein stability index is 2.44.

As to TLARCAKDILGFAVMFSIVFFAYA [F17S], the protein stability index came out at 2.03.

As to TLARCAKDILGFAVMFNIVFFAYA [F17N], the protein stability index was determined as 1.56.

In the case of TLARCAKDILGFAVMFCIVFFAYA [F17C], the protein stability index turned out to be 2.07.

For the variant TLARCAKDILGFAVMFIIVFFAYA [F17I], the protein stability index turned out to be 2.44.

On to TLARCAKDILGFAVMFWIVFFAYA [F17W], for which the protein stability index amounted to 1.91.

Consider TLARCAKDILGFAVMFAIVFFAYA [F17A], for which the protein stability index amounted to 1.79.

Regarding TLARCAKDILGFAVMFDIVFFAYA [F17D], the protein stability index worked out at 3.23.

With TLARCAKDILGFAVMFRIVFFAYA [F17R], the protein stability index came out at 2.98.

For the variant TLARCAKDILGFAVMFKIVFFAYA [F17K], the protein stability index came out at 2.06.

Turning to TLARCAKDILGFAVMFMIVFFAYA [F17M], the protein stability index came out at 1.84.

TLARCAKDILGFAVMFVIVFFAYA [F17V]: the protein stability index was 2.44.

For TLARCAKDILGFAVMFTIVFFAYA [F17T], the protein stability index turned out to be 2.4.

In the case of TLARCAKDILGFAVMFEIVFFAYA [F17E], the protein stability index amounted to 2.32.

On to TLARCAKDILGFAVMFHIVFFAYA [F17H], for which the protein stability index stood at 3.23.

Turning to TLARCAKDILGFAVMFYIVFFAYA [F17Y], the protein stability index turned out to be 2.37.

For the variant TLARCAKDILGFAVMFFIRFFAYA [V19R], the protein stability index was found to be 2.36.

Take TLARCAKDILGFAVMFFIEFFAYA [V19E]: the protein stability index worked out at 2.11.

For TLARCAKDILGFAVMFFIKFFAYA [V19K], the protein stability index amounted to 2.34.

Take TLARCAKDILGFAVMFFIGFFAYA [V19G]: the protein stability index was determined as 2.34.

For the variant TLARCAKDILGFAVMFFIWFFAYA [V19W], the protein stability index came to 3.

On to TLARCAKDILGFAVMFFITFFAYA [V19T], for which the protein stability index was determined as 2.69.

As to TLARCAKDILGFAVMFFIDFFAYA [V19D], the protein stability index is 3.22.

For the variant TLARCAKDILGFAVMFFINFFAYA [V19N], the protein stability index is 2.39.

As to TLARCAKDILGFAVMFFILFFAYA [V19L], the protein stability index came to 3.88.

In the case of TLARCAKDILGFAVMFFIYFFAYA [V19Y], the protein stability index was found to be 2.5.

TLARCAKDILGFAVMFFIIFFAYA [V19I]: the protein stability index was determined as 2.9.

For TLARCAKDILGFAVMFFICFFAYA [V19C], the protein stability index turned out to be 2.32.

On to TLARCAKDILGFAVMFFIPFFAYA [V19P], for which the protein stability index stood at 2.99.

TLARCAKDILGFAVMFFIQFFAYA [V19Q]: the protein stability index came out at 3.48.

Regarding TLARCAKDILGFAVMFFIAFFAYA [V19A], the protein stability index was determined as 2.61.

TLARCAKDILGFAVMFFIFFFAYA [V19F]: the protein stability index was determined as 2.13.

On to TLARCAKDILGFAVMFFISFFAYA [V19S], for which the protein stability index came out at 2.36.

As to TLARCAKDILGFAVMFFIHFFAYA [V19H], the protein stability index was found to be 3.19.

Take TLARCAKDILGFAVMFFIMFFAYA [V19M]: the protein stability index worked out at 2.58.

Turning to TLARCAKDILGFAVMYFIVFFAYA [F16Y], the protein stability index was found to be 1.88.

In the case of TLARCAKDILGFAVMQFIVFFAYA [F16Q], the protein stability index came to 4.27.

As for TLARCAKDILGFAVMIFIVFFAYA [F16I], the protein stability index was found to be 1.57.

Take TLARCAKDILGFAVMRFIVFFAYA [F16R]: the protein stability index amounted to 3.37.

With TLARCAKDILGFAVMVFIVFFAYA [F16V], the protein stability index amounted to 2.07.

Take TLARCAKDILGFAVMTFIVFFAYA [F16T]: the protein stability index worked out at 2.41.

On to TLARCAKDILGFAVMHFIVFFAYA [F16H], for which the protein stability index amounted to 2.28.

Consider TLARCAKDILGFAVMAFIVFFAYA [F16A], for which the protein stability index stood at 2.21.

In the case of TLARCAKDILGFAVMCFIVFFAYA [F16C], the protein stability index is 1.79.

On to TLARCAKDILGFAVMGFIVFFAYA [F16G], for which the protein stability index amounted to 2.71.

Take TLARCAKDILGFAVMMFIVFFAYA [F16M]: the protein stability index came to 2.98.

As to TLARCAKDILGFAVMWFIVFFAYA [F16W], the protein stability index is 3.32.

Regarding TLARCAKDILGFAVMSFIVFFAYA [F16S], the protein stability index is 1.82.

For TLARCAKDILGFAVMEFIVFFAYA [F16E], the protein stability index was determined as 3.1.

On to TLARCAKDILGFAVMNFIVFFAYA [F16N], for which the protein stability index turned out to be 2.6.

For the variant TLARCAKDILGFAVMKFIVFFAYA [F16K], the protein stability index was 4.35.

For the variant TLARCAKDILGFAVMPFIVFFAYA [F16P], the protein stability index is 1.96.

Regarding TLARCAKDILGFAVMLFIVFFAYA [F16L], the protein stability index was determined as 3.69.

As to TLARCAKDILGFAVMFFIVFFCYA [A22C], the protein stability index was found to be 4.15.

TLARCAKDILGFAVMFFIVGFAYA [F20G]: the protein stability index was 2.03.

Regarding TLARCAKDILGFAVMFFIVQFAYA [F20Q], the protein stability index is 3.46.

With TLARCAKDILGFAVMFFIVVFAYA [F20V], the protein stability index was determined as 3.23.

As for TLARCAKDILGFAVMFFIVAFAYA [F20A], the protein stability index amounted to 1.99.

In the case of TLARCAKDILGFAVMFFIVIFAYA [F20I], the protein stability index is 2.7.

On to TLARCAKDILGFAVMFFIVRFAYA [F20R], for which the protein stability index came to 2.42.

Consider TLARCAKDILGFAVMFFIVEFAYA [F20E], for which the protein stability index worked out at 2.77.

On to TLARCAKDILGFAVMFFIVWFAYA [F20W], for which the protein stability index was 1.56.

As for TLARCAKDILGFAVMFFIVCFAYA [F20C], the protein stability index was determined as 2.57.

Turning to TLARCAKDILGFAVMFFIVDFAYA [F20D], the protein stability index was determined as 1.83.

Take TLARCAKDILGFAVMFFIVYFAYA [F20Y]: the protein stability index is 2.46.

TLARCAKDILGFAVMFFIVTFAYA [F20T]: the protein stability index was found to be 1.92.

For the variant TLARCAKDILGFAVMFFIVHFAYA [F20H], the protein stability index was 2.07.

Regarding TLARCAKDILGFAVMFFIVPFAYA [F20P], the protein stability index came to 3.48.

For the variant TLARCAKDILGFAVMFFIVSFAYA [F20S], the protein stability index was 2.46.

TLARCAKDILGFAVMFFIVKFAYA [F20K]: the protein stability index came to 2.48.

Take TLARCAKDILGRAVMFFIVFFAYA [F12R]: the protein stability index amounted to 2.02.

Take TLARCAKDILGWAVMFFIVFFAYA [F12W]: the protein stability index amounted to 3.56.

Take TLARCAKDILGGAVMFFIVFFAYA [F12G]: the protein stability index worked out at 2.56.

Regarding TLARCAKDILGHAVMFFIVFFAYA [F12H], the protein stability index was 1.93.

Regarding TLARCAKDILGTAVMFFIVFFAYA [F12T], the protein stability index was 1.89.

Consider TLARCAKDILGLAVMFFIVFFAYA [F12L], for which the protein stability index amounted to 3.16.

With TLARCAKDILGNAVMFFIVFFAYA [F12N], the protein stability index amounted to 2.55.

In the case of TLARCAKDILGKAVMFFIVFFAYA [F12K], the protein stability index turned out to be 2.33.

As to TLARCAKDILGCAVMFFIVFFAYA [F12C], the protein stability index stood at 1.87.

As for TLARCAKDILGAAVMFFIVFFAYA [F12A], the protein stability index stood at 1.42.

Take TLARCAKDILGEAVMFFIVFFAYA [F12E]: the protein stability index amounted to 1.44.

As to TLARCAKDILGYAVMFFIVFFAYA [F12Y], the protein stability index amounted to 1.89.

In the case of TLARCAKDILGVAVMFFIVFFAYA [F12V], the protein stability index turned out to be 2.42.

As to TLARCAKDILGPAVMFFIVFFAYA [F12P], the protein stability index came to 2.87.

In the case of TLARCAKDILGQAVMFFIVFFAYA [F12Q], the protein stability index was determined as 2.1.

As for TLARCAKDILGDAVMFFIVFFAYA [F12D], the protein stability index amounted to 2.24.

For the variant TLARCAKDILGSAVMFFIVFFAYA [F12S], the protein stability index is 1.89.

In the case of TLARCAKDILGIAVMFFIVFFAYA [F12I], the protein stability index was determined as 1.49.

The values are drawn from the supplement of paper PMC10567573.
